Measured values taken from publication PMC3570467.

Biological target: a representative mIgG1 mAb (used for the KD determinations; not told which) (mouse)
Test: SPR; BIAcore 2000; mIgG1 mAb immobilised on CM-5; Z variants serially diluted 250 nM to 64 µM; KD for 1:1 interaction from equilibrium response values

Substance	Kd
ZF5I, Z domain variant with Phe to Ile substitution at position 5 (designed binder)	10 µM
ZF5R, Z domain variant with F5R substitution (designed binder)	10 µM
wild type Z domain (ZWT), staphylococcal protein A-derived 58-residue three-helix bundle domain (designed binder)	> 100 µM
